Results from patent US20250042969A1, “ANTIGEN DISCOVERY FOR T CELL RECEPTORS ISOLATED FROM PATIENT TUMORS RECOGNIZING WILD-TYPE ANTIGENS AND POTENT PEPTIDE MIMOTOPES” (The Board of Trustees of the Leland Stanford Junior …, priority 2017, published 2025).

Legend:
[1] = tested on: peptide-HLA-A*02:01 yeast-display library; assay: Selection of the peptide-HLA-A*02:01 yeast-display library by multimerized TCR with deep sequencing; format: binding, human; settings: for cross-reactivity (breadth of tolerated amino acids per peptide position): round 3, accounting for peptide enrichment
MMDFFNAQM-HLA-A*02:01 = biological target: T1, MMDFFNAQM-HLA-A*02:01 (Homo sapiens, UniProt P04439+P26368, D140Y/D185E/D98H/E176V/E277Q/G131W/G231S/I119V/I121R/I166T/I218V/N151K/N90K/P208A/P217A/Q86G/Q94H/R138H/R169H); assay: Surface plasmon resonance of TCR binding to immobilized […]-HLA-A*02:01; settings: BIAcore T100, 25° C., equilibrium data, 1:1 binding model
T1 construct: HLA-A*02:01 (1-275); BirA biotinylation site (implied by BirA biotinylation); made in house
Procedure: Inclusion bodies containing the separate proteins were dissolved in 8 M urea, 40 mM Tris-HCl pH 8.0, 10 mM EDTA, and 10 mM DTT. […] After 72 hours at 4° C., the protein was dialyzed in 10 L of 10 mM Tris-HCl and purified via weak ion exchange using a DEAE cellulose column. The protein elution was purified using size exclusion chromatography on a Superdex 200 column and ion-exchange chromatography on a 5/50 Mono Q column (GE Healthcare). Protein was biotinylated overnight with birA ligase, 100 μM biotin, 40 mM Bicine pH 8.3, 10 mM ATP, and 10 mM Magnesium Acetate at 4° C. after buffer-exchange to 1×HBS pH 7.2 in a 30 kDa filter (Millipore) before being run on a size exclusion Superdex 200 column.
A different flow cell was immobilized with non-relevant peptide-HLA-A2 to serve as blank control. […] Injections of TCR were stopped after 60 s to allow sufficient time for SPR signals to reach plateau. The dissociation constant (KD) was obtained by fitting equilibrium data with a 1:1 binding model using BIAcore evaluation software.

Row | Molecule | enrichment of peptides / HLA-linked epitope tag from the library ([1]; HLA-A*02:01 library) | cross-reactivity (breadth of tolerated amino acids per peptide position) [1] | affinity (dissociation constant, KD) (MMDFFNAQM-HLA-A*02:01) | TCR tetramer staining of selected library yeast ([1]; 400 nM TCR tetramer, over rounds of selection) | unique peptides selected at round 3 ([1]; HLA-A*02:01 library, all four peptide lengths, deep sequencing)
1 | TCR 2A: TIL TCR of Patient A, TRAV19/TRBV10-1; alpha chain SEQ ID NO: 258, beta chain SEQ ID NO: 259 (protein) alpha: QKVTQAQTEISVVEKEDVTLDCVYETRDTTYYLFWYKQPPSGELVFLIRRNSFDEQNEISGRYSWNFQKSTSSFNFTITASQVVDSAVYFCALSEARGGATNKLIFGTGTLLAVQPNIQNPDPAVYQLRDSKSSDKSVCLFTDFDSQTNVSQSKDSDVYITDKCVLDMRSMDFKSNSAVAWSNKSDFACANAFNNSIIPEDTFFPSPESS beta: EITQSPRHKITETGRQVTLACHQTWNHNNMFWYRQDLGHGLRLIHYSYGVQDTNKGEVSDGYSVSRSNTEDLPLTLESAASSQTSVYFCASSRDTVNTEAFFGQGTRLTVVEDLKNVFPPEVAVFEPSEAEISHTQKATLVCLATGFYPDHVELSWWVNGKEVHSGVCTDPQPLKEQPALNDSRYALSSRLRVSATFWQNPRNHFRCQVQFYGLSENDEWTQDRAKPVTQIVSAEAWGRAD | enriched peptides from the library | more cross-reactive | – | – | –
2 | TCR 3B: TIL TCR of Patient B, TRAV19/TRBV10-1; alpha chain SEQ ID NO: 258, beta chain SEQ ID NO: 260 (protein) alpha: QKVTQAQTEISVVEKEDVTLDCVYETRDTTYYLFWYKQPPSGELVFLIRRNSFDEQNEISGRYSWNFQKSTSSFNFTITASQVVDSAVYFCALSEARGGATNKLIFGTGTLLAVQPNIQNPDPAVYQLRDSKSSDKSVCLFTDFDSQTNVSQSKDSDVYITDKCVLDMRSMDFKSNSAVAWSNKSDFACANAFNNSIIPEDTFFPSPESS beta: EITQSPRHKITETGRQVTLACHQTWNHNNMFWYRQDLGHGLRLIHYSYGVQDTNKGEVSDGYSVSRSNTEDLPLTLESAASSQTSVYFCASSRDFVSNEQYFGPGTRLTVTEDLKNVFPPEVAVFEPSEAEISHTQKATLVCLATGFYPDHVELSWWVNGKEVHSGVCTDPQPLKEQPALNDSRYALSSRLRVSATFWQNPRNHFRCQVQFYGLSENDEWTQDRAKPVTQIVSAEAWGRAD | enriched peptides from the library | relatively specific | could not be determined | tetramer stained yeast gradually increased across the rounds of selection | 66
